B1: c5299 (antibody, V domains shown)
VH: QVRLLESGPGLVKPSGTLSLTCHVSGASVTSFSWSWVRQSAQKGLQWLGRILPTNGSNKSNPSLHPRVGLAADTSTNQLSLRLTSVTAADSGIYFCARDFVRDYDSWASDYSTLHGIDVWGPGTSVTVSF
VL: NSLLTQPPSVSESPGKTVTISCTRTSGDITWDFVQWYRHRPGTSPTLVIFANDRRASGVPDRFSGSIDSSSNTAALTISGLKTDDEADYYCQSFHPRYHVVFGGGTKLTVL
B2: c5260 (antibody, V domains shown)
VH: QVRLQESGPRLVKPSETLSLTCTVSGASVTSYSWSWIRYSAERGLEWIGRILPTIGSNRANPSLHFRVGMSADTSKNLLSLRLTSLTAADTAIYFCARDLVRDYDSWGGDYSTFHGIDVWGQGTTVIVSL
VL: NSLLTQPPSVSESPGKTVNISCTRTSGAITWDFVQWYQKRPGSVPTVVIYANDRRPSGVPDRFSGSIDSSSNSAALTISRLKTEDEAEYYCQSFHPRSHVVFGGGTKLTVL
B3: c22681 (antibody, V domains shown)
VH: QIRLVESGGALVKPGGSLRLSCTASGFPFGHYYLSWVRQGPGRGLEWVAHISARSTTIVYADSVRGRFTISRDNDKRSLYLEMNDLRVDDTAMYYCARDSFKWTWEYFDAWGQGTRVSVSS
VL: QSVLTQPPSVSGAPGQTVAISCSGSTSNIGHNPVSWYRNVPGTAPRIIIFSDSQRPSGIPGRFSGSKSGTSASLVITDLQLEDEGDYYCAAWGGSLRGALFGGGTKVTVL
B4: c10895 (antibody, V domains shown)
VH: QEQGIESVRAAVESGASLIISCPTSGFDFARYTMHWVRQAPGKGLEWVAVTSSQGEKKYYSEAVKGRFVITRNNFKRTLYLEMSSLKPEDAGVYYCARSQGYCGTYACYGYYYYMDVWVKGPTVIVSS
VL: QSVLTQPPSVSAAPGEKVAISCSGNTTNIEKNYVAWYQHVPETAPKLLIFENHKRPFGIPDRFSGSKSATSATLGISDLQTADEADYYCQTWDTKLHIWVFGGGTKLTVL
B5: c5331 (antibody, V domains shown)
VH: HVHLQESGPGLVKPSETLSVTCQVSGSPLSRYFWSWIRQPAGGGLEWIGRHYPSSGSNTASAALHTRITMSMDFRNNRLSLTLRSVTAADTAVYYCTRDVMRDFNDVNGSGGTFRGVEFWGRGTTVTVSS
VL: SFILTQPHAVSESPGKTVTISCTRSSGSIDTAYVHWYQQRPGRPPTTLIYDANQRPSGVPDRFSASVDSSSSSASLTISGLEAEDEAIYYCQSSDSGHRVVFGGGTELTVL
B6: c5229 (antibody, V domains shown)
VH: QMQLQESGPRLVKPSETLTVTCSVSGGSMSHFHWSWIRQSAGKGLEWIGSVYGNSGSVRSNPSLHTRVAFSLGRGQISLNLKWATAADTAVYYCARELARDFDYNFGHGGSSFGIEVWGRGTLVTVSS
VL: NFILTQPHSVSGSPGKTVIISCTRSSGNIGDNSVQWYQQRPGTPPRTVISEKNKRPSGVPDRFSASIDTSSNSASLTISGLTTEDEADYYCQSCDSGNRLIFGGGTTLTVL
B7: c27003 (antibody, V domains shown)
VH: QFQLVQSGAEVRSPGSSVTVSCKASGSTFHTYVLSWVRQAPGQGLEWMGGIIPIFATPKYAQKFQGRVTFTADEGTSTAYMDLRSLRPEDTAVYYCARSATGGTALVDYGDYEGDTFYHNHMDVWGAGTTVTVSS
VL: QSVLTQPPSASATPGQRVTISCSGRTSNVGSYAVSWYQQLPGTAPKLVIYSDDRRPSGVPDRFSGSKSGTSASLAISGLQSEDEADFYCAAWDDSLKTPVFGGGTKLTVL
B8: c5616 (antibody, V domains shown)
VH: LVRLAESGGGVVRPGESLTLSCATSGFSFSSYGMHWVRQIPGKGLEWVAVIWNDGSRRYYSDSVQGRFTIAKDTSNKTLSLHMRDLQVGDTAVYFCARAYGPQSEMDSWGLGTLVTVSS
VL: SSELTQPPSVSVSPGQTAILTCVGDILPRKHAYWYRQRAGRAPTLIVFGDNNRPSGIPARFSGFTSGTVATLVITAAQVDDGGDYFCYSADNSGNHRGVFGGGTRLTIL
B9: c5358 (antibody, V domains shown)
VH: RLQLRESGPALVRPSETLSLTCTVSGGPTSDFFWSWVRQAAGGRLEWIGRIYASDGSTKMNPALHTRIGLELNTLENIFNLRLLSVTAADTAVYFCVREEVHGYDSWNSDSGTYNGIDAWGLGTPVTVSS
VL: SVVLTQPPSVSGSPGETVIISCTRSSGAIPSRHVQWYRQRPGGLPARVIFANSQRPHWVPDRYSASVDASSNTASLTISGLQPDDEAKYFCQSFDDTRHHHIVFGGGTEVIVV
B10: c5373 (antibody, V domains shown)
VH: QVRLQESAPRVVKPSESLSLTCTVSGGSIFPFFYSWIRQAPGGGLQWIGRLYSNTGSSKSNPSLHLRVALSVDRSRNQVGLKMTSMTAADTGVYYCVRDIMREFDDFNGAGGVYGGVDIWGRGTAVTVSS
VL: QFVLTQPPSVSESPGKTISISCTRSSGTFARNSVHWYLQRPGSVPKTVIYDGNRRPSGIPGRFSASIDVSSGSASLTISGLTTEDEAEYYCQSFDGGNHVVFGGGTKVTVL
B11: c807 (antibody, V domains shown)
VH: QVQLQESAPRLVTTSETLSLTCTVFGGQFYPFFYSWVRQSPGGKLQWIGRKYSSTGSMRTNPSLHTRVGMPLDHSKSQIGLTMSSMTAADTGIYYCVRDIMREFDSVDGSGGVYGGVDVWGRGTTVTVSS
VL: NFMLTQPPSVSESPGKTVTISCTRNSGSIASNSVYWYRQRPGSPPTTLIHDNNRRPTGVPDRFSASIDTSSNSASLTISSLKTEDEADYYCQSYDNGNHVIFGGGTNLLVL
B12: c31993 (antibody, V domains shown)
VH: EVQLVQSGAEVKKPGESLKISCKCSGYTFSDHWIGWVRQRPEKGLEWMGIIFPDDSETRYSPSFEGQVTFSVDTASSTAYLLWNSLKPSDTATYYCARQESDEVRGARYDIWGQGTVVAVSS
VL: QSVLTQPPSVSGTPGQRVTISCSGSTSNVENNYVFWYQQLPGKAPELLIDGSNQRPSGVPDRFSGSKSGISASLAISGLRSEDEAYYYCAAWDESFVYLFGGGTKLTVL
B13: c26986 (antibody, V domains shown)
VH: QVHLVQSGAEVKKPGSSVKVSCKASGGSFNTNFITWVRQAPGQGLEWMGRIMPMFGTRNLAQRFQGRVTLSADTSSNSVYMELSSLTFGDTAVYFCAREAPAGGLDIWGQGTLVTVSS
VL: QIVLTQSPGTLSLSPGERATLSCRASQSLSSNYLAWYQQKPGQAPRLLIYGASSRATGIPDRFSGSGSGTDFTLTISRLEPEDFAVYYCQQYSTLFSFGPGTRVDIK
B14: c10819 (antibody, V domains shown)
VH: EMRLEESGGALVKPGGSLRLSCVASGFKLSEWSLMWVRQAPGKGLQWVSSISLNQDYISYAGSVRGRFDVFRDRTQTSLLLNMNKLKTEDTGIYFCARVHAWRYFDWVNRRSPVEKVLSIDLWGRGTLVIVSS
VL: SGATQPPSVSVSKGETARITCSGVELSSQYVSWYRQRPGQSPVLVMFHNNSRASRIPERFSASDSGDTATLTIAGAQDVDEAEYYCQTWDSKNYVTFGGGTKLTVL
B15: c24356 (antibody, V domains shown)
VH: QVQVVQSGAEVKQPGASVSVSCKVLGYTLSELSMHWVRQSPAKGLEWMAGFDPDANKEIYAQEFQGRVTLTHHFDTDTYFLELTSLRSDDTAVYYCATGERLAGNFLDWLHNFDYWGQGTLVTVSA
VL: EIVLTQSPATLSLSPGERATLSCRASQSIGNYLAWYQQRPGQAPRLLIHSTSNRATGIPVRFTGSGSGTDFTLTISSLEAEDFAVYYCQHRVNWPPGYTFGQGTKLDIK
B16: c26412 (antibody, V domains shown)
VH: EVRLVQSGGGVVRPGGSLRLSCSASGFSFSRSAMSWVRQAPGKELQWVAAISGSGNSHHISDAFRGRVSISRNNENDSVFLQMSNLRLDDTGKYFCAKSEGGRSGWYYWATEYFQHWGQGAVVTVSS
VL: SSELTQPPSVSVSPGQTARISCSGHTLPQRYATWYQQKPGRAPLLIIFGNNERPSGIPARFSVSASGKSAILTITGVQAEDEGDYICQSSDGSHTSLFFGGGTKLTVL
B17: c24103 (antibody, V domains shown)
VH: EVRLAQSGGGLVQPGGSLRLSCSASGFSFSKSAMSWVRQAPGKELQWVAAISGSGNSQHISDAVRGRLSISRDNLDDSVFLHMNNLRVEDTAKYFCAKSEGGRSGWYYWATEYFQHWGQGAVVTVAS
VL: SSELTQPPSVSVSPGQTARISCSGHALPQRYATWYRQKPGQAPILIVFGNNERPSGIPARFSVSASGKTAMLTITGVQAEDEGDYICQSSDGSHTSLVFGGGTKLTVL
B18: c24118 (antibody, V domains shown)
VH: EVRLVESGGSLVQPGGSLRLSCSASGFSFSKSAMSWVRQAPGKELEWVAAISGSGNSHHISDAVRGRFSISRDNLGDSVFLQMYNLRVDDTAKYFCAKSEGGRSGWYYWATEYFQHWGQGAVVTVAS
VL: SSELTQPPSVSVSPGQTARISCSGHALPQRYATWYRQKPGQAPILIIFGNNERPSGIPARFFVSASGKTAILTITGVQAEDEGDYICQSSDGSHTSLVFGGGTKLTVL
B19: c5272 (antibody, V domains shown)
VH: EVRLQESGPELVKPSGTLSLTCTIYGESIFPYFYSWIRQTAGGGLQWIGRLYSSTGSSKSNPSIHLRVALSVDRDRNQVGLRMTSMSLADTGVYYCVRDVMRGYDSFDGSSGIYGGVDIWGRGTTVTVSS
VL: QFLLTQPHSVSESPGKTITISCTRSSGTFASKSVLWFSQRPGSRPTNVIFETNRRAAGVPDRFSGSVDSSSSSATLTISGLRTEDEGDYYCQSYDGGNHVVFGGGTKVTVL
B20: c10969 (antibody, V domains shown)
VH: AGHLVESGGKLISPGGSLSLSCVASGFTFKNAHMTWVRQVPGKGLEWIALMKSHADGSHTDYSPSVRDRCAISRDDSTSSLFLHLYNLQLDDTGIYYCVHLSSPDEWGLGTAVTVSS
VL: HIVLTQSPVTLSGSQGDTVALSCRANQSLRSHLAWYQHRPGQTPKVLIYEVSRRRPATPPRFSGSGSGTEFTLVIRGLEPEDSAVYYCQQGDFWPFSFGQGTNLEIT
B21: c5266 (antibody, V domains shown)
VH: QVRLQESGPGLVKPSETLSLTCSVSGASVTAYSWSWVRLSAERGLEWIGRILPTIGSNRSNPSLHMRVGMSADTSKNLLSLRLTSVTAADTATYFCARDLVRDYDSWGGDYSTFHGIDVWGQGITVTVSL
VL: NSLLTQPPSVSESPGKTVNISCTRTSGGITWDFVQWYQQRPGRAPAIVIYANDRRPSGVPDRFAGSIDSSSNSAALIISGLITEDEADYYCQSFHPRGHVVFGGGTKLTVL

Each binder was assayed against HIV-1 NL4-3 Env on infected cells (HIV-1 group M subtype B, NL4-3 (pNL4-3 …, strain)).

**Q.** Does B1 bind?
**A.** Result: binds

**Q.** Does B2 bind?
**A.** Result: binds

**Q.** Does B3 bind?
**A.** Result: binds

**Q.** Does B4 bind?
**A.** Result: binds

**Q.** Does B5 bind?
**A.** Result: binds

**Q.** Does B6 bind?
**A.** Result: binds

**Q.** Does B7 bind?
**A.** Result: binds

**Q.** Does B8 bind?
**A.** Result: binds

**Q.** Does B9 bind?
**A.** Result: binds

**Q.** Does B10 bind?
**A.** Result: binds

**Q.** Does B11 bind?
**A.** Result: binds

**Q.** Does B12 bind?
**A.** Result: binds

**Q.** Does B13 bind?
**A.** Result: binds

**Q.** Does B14 bind?
**A.** Result: binds

**Q.** Does B15 bind?
**A.** Result: binds

**Q.** Does B16 bind?
**A.** Result: binds

**Q.** Does B17 bind?
**A.** Result: binds

**Q.** Does B18 bind?
**A.** Result: binds

**Q.** Does B19 bind?
**A.** Result: binds

**Q.** Does B20 bind?
**A.** Result: binds

**Q.** Does B21 bind?
**A.** Result: binds

— article PMC8196545 (Cell reports, 2021)
